According to publication PMC4055269 (Molecular Biology of the Cell, 2014):

Target: the molecule itself
Test: SEC-MALS

B1: Drp1 C505A (enzyme, human, UniProt O00429-4 1-699, looked up)
chain: MEALIPVINKLQDVFNTVGADIIQLPQIVVVGTQSSGKSSVLESLVGRDLLPRGTGIVTRRPLILQLVHVSQEDKRKTTGEENGVEAEEWGKFLHTKNKLYTDFDEIRQEIENETERISGNNKGVSPEPIHLKIFSPNVVNLTLVDLPGMTKVPVGDQPKDIELQIRELILRFISNPNSIILAVTAANTDMATSEALKISREVDPDGRRTLAVITKLDLMDAGTDAMDVLMGRVIPVKLGIIGVVNRSQLDINNKKSVTDSIRDEYAFLQKKYPSLANRNGTKYLARTLNRLLMHHIRDCLPELKTRINVLAAQYQSLLNSYGEPVDDKSATLLQLITKFATEYCNTIEGTAKYIETSELCGGARICYIFHETFGRTLESVDPLGGLNTIDILTAIRNATGPRPALFVPEVSFELLVKRQIKRLEEPSLRCVELVHEEMQRIIQHCSNYSTQELLRFPKLHDAIVEVVTCLLRKRLPVTNEMVHNLVAIELAYINTKHPDFADAAGLMNNNIEEQRRNRLARELPSAVSRDKVASGGGGVGDGVQEPTTGNWRGMLKTSKAEELLAEEKSKPIPIMPASPQKGHAVNLLDVPVPVARKLSAREQRDCEVIERLIKSYFLIVRKNIQDSVPKAVMHFLVNHVKDTLQSELVGQLYKSSLLDDLLTESEDMAQRRKEAADMLKALQGASQIIAEIRETHLW
stoichiometry N: 2
